Measured values reported in publication PMC5758874 (Nucleic Acids Research, 2017).
Several values for one entry are separate records, joined by “and”; a condition that tells them apart may be missing. Equal entries are not always repeated. Where two headings read alike, the source gives them in different places.

Tests used:
crystal structure [1] = target: the molecule itself; experiment: crystal structure
crystal structure [2] = target: the molecule itself; experiment: crystal structure; remark: listed apart in the source
SEC = target: the molecule itself; experiment: SEC
RcsB A93D = target: T1, RcsB A93D (Salmonella enterica serovar Typhimurium, UniProt P58663 1-210, A93D); experiment: EMSA
T1 sequence: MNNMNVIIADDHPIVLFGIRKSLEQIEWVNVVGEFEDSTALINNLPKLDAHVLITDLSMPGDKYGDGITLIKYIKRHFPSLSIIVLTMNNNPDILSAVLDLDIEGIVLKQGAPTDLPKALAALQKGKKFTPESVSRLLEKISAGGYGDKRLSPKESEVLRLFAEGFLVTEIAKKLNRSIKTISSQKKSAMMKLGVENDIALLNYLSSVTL

RcsB Q185A = target: T2, RcsB Q185A (Salmonella enterica serovar Typhimurium, UniProt P58663 1-210, Q185A); experiment: EMSA
T2 sequence: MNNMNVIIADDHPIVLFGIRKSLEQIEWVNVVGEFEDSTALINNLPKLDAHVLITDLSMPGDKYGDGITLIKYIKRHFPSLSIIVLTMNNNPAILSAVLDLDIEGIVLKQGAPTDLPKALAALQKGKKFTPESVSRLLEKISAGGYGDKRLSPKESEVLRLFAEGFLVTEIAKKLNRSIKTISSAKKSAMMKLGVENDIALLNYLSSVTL

RcsB D56A = target: T3, RcsB D56A (Salmonella enterica serovar Typhimurium, UniProt P58663 1-210, D56A); experiment: EMSA
T3 sequence: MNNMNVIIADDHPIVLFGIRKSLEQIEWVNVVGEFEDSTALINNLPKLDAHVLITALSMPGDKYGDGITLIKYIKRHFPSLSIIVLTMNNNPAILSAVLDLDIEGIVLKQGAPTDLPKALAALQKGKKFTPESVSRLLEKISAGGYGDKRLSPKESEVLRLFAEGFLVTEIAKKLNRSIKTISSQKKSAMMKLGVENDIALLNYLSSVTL

RcsB L202D = target: T4, RcsB L202D (Salmonella enterica serovar Typhimurium, UniProt P58663 1-210, L202D); experiment: EMSA
T4 sequence: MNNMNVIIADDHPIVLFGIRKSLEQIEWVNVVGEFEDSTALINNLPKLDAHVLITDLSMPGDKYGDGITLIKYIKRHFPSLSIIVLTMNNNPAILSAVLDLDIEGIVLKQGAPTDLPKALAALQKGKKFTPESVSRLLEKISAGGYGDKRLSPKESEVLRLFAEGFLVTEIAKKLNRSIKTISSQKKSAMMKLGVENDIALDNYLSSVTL

RcsB L202F = target: T5, RcsB L202F (Salmonella enterica serovar Typhimurium, UniProt P58663 1-210, L202F); experiment: EMSA
T5 sequence: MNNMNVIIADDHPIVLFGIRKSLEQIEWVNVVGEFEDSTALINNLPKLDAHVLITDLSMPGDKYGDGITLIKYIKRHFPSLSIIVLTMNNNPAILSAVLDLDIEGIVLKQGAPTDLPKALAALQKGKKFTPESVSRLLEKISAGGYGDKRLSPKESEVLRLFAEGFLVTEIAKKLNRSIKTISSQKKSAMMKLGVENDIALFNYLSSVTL

RcsB K180A = target: T6, RcsB K180A (Salmonella enterica serovar Typhimurium, UniProt P58663 1-210, K180A); experiment: EMSA
T6 sequence: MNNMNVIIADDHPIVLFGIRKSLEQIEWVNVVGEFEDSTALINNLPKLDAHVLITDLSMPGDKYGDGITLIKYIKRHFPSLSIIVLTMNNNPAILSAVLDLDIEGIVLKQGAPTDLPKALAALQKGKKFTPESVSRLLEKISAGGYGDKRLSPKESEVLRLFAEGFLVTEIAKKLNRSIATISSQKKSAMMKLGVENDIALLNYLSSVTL

RcsB H12A = target: T7, RcsB H12A (Salmonella enterica serovar Typhimurium, UniProt P58663 1-210, H12A); experiment: EMSA
T7 sequence: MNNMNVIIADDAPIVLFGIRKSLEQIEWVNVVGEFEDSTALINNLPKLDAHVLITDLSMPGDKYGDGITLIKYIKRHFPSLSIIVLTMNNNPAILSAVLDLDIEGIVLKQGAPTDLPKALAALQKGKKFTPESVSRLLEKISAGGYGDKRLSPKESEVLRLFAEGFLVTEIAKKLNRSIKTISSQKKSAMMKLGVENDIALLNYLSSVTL

RcsB M88A = target: T8, RcsB M88A (Salmonella enterica serovar Typhimurium, UniProt P58663 1-210, M88A); experiment: EMSA
T8 sequence: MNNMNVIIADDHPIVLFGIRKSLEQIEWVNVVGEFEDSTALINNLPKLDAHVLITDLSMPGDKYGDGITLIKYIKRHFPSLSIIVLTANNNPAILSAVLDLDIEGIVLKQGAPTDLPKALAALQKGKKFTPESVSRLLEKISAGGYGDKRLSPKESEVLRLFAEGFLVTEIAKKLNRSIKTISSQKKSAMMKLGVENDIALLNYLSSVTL

RcsB WT [3] = target: T9, RcsB WT (Salmonella enterica serovar Typhimurium, UniProt P58663 1-210); experiment: EMSA
T9 sequence: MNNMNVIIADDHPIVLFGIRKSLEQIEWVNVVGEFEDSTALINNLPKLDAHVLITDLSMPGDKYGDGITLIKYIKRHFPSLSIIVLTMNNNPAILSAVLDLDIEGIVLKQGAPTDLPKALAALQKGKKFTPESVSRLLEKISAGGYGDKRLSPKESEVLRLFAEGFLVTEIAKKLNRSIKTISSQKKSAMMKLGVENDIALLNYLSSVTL

RcsB WT [4] = target: T9, RcsB WT; experiment: EMSA; remark: listed apart in the source

B1: RcsB from Salmonella enterica serovar Typhimurium (residues 1-210), wild type (natural protein, UniProt P58663 1-210, looked up)
chain: MNNMNVIIADDHPIVLFGIRKSLEQIEWVNVVGEFEDSTALINNLPKLDAHVLITDLSMPGDKYGDGITLIKYIKRHFPSLSIIVLTMNNNPAILSAVLDLDIEGIVLKQGAPTDLPKALAALQKGKKFTPESVSRLLEKISAGGYGDKRLSPKESEVLRLFAEGFLVTEIAKKLNRSIKTISSQKKSAMMKLGVENDIALLNYLSSVTL
B1 was tested. Which “stoichiometry N” value (crystal structure [1]) did it give?
Its value is 2.

B2: RcsB S207C variant (natural protein, Salmonella enterica serovar Typhimurium, UniProt P58663 1-210, looked up)
chain: MNNMNVIIADDHPIVLFGIRKSLEQIEWVNVVGEFEDSTALINNLPKLDAHVLITDLSMPGDKYGDGITLIKYIKRHFPSLSIIVLTMNNNPAILSAVLDLDIEGIVLKQGAPTDLPKALAALQKGKKFTPESVSRLLEKISAGGYGDKRLSPKESEVLRLFAEGFLVTEIAKKLNRSIKTISSQKKSAMMKLGVENDIALLNYLSCVTL
B2 was tested. Which “stoichiometry N” value (crystal structure [2]) did it give?
The value was 2 and 6.

B3: Phosphorylated RcsB from S. Typhimurium (wild type incubated with acetylphosphate) (natural protein, Salmonella enterica serovar Typhimurium, UniProt P58663 1-210, looked up)
chain: MNNMNVIIADDHPIVLFGIRKSLEQIEWVNVVGEFEDSTALINNLPKLDAHVLITDLSMPGDKYGDGITLIKYIKRHFPSLSIIVLTMNNNPAILSAVLDLDIEGIVLKQGAPTDLPKALAALQKGKKFTPESVSRLLEKISAGGYGDKRLSPKESEVLRLFAEGFLVTEIAKKLNRSIKTISSQKKSAMMKLGVENDIALLNYLSSVTL
modifications: phosphorylated at D56 by incubation with acetylphosphate (AcP)
B3 was tested. Which “stoichiometry N” value (SEC) did it give?
Its value is 2.

B4: RcsB E170A variant, incubated with acetylphosphate (natural protein, Salmonella enterica serovar Typhimurium, UniProt P58663 1-210, looked up)
chain: MNNMNVIIADDHPIVLFGIRKSLEQIEWVNVVGEFEDSTALINNLPKLDAHVLITDLSMPGDKYGDGITLIKYIKRHFPSLSIIVLTMNNNPAILSAVLDLDIEGIVLKQGAPTDLPKALAALQKGKKFTPESVSRLLEKISAGGYGDKRLSPKESEVLRLFAEGFLVTAIAKKLNRSIKTISSQKKSAMMKLGVENDIALLNYLSSVTL
modifications: phosphorylated (D56) by incubation with acetylphosphate; reduced level against the WT
Does B4 bind (SEC)?
Result: binds

B5: RcsB M88A variant, incubated with acetylphosphate (natural protein, Salmonella enterica serovar Typhimurium, UniProt P58663 1-210, looked up)
chain: MNNMNVIIADDHPIVLFGIRKSLEQIEWVNVVGEFEDSTALINNLPKLDAHVLITDLSMPGDKYGDGITLIKYIKRHFPSLSIIVLTANNNPAILSAVLDLDIEGIVLKQGAPTDLPKALAALQKGKKFTPESVSRLLEKISAGGYGDKRLSPKESEVLRLFAEGFLVTEIAKKLNRSIKTISSQKKSAMMKLGVENDIALLNYLSSVTL
modifications: phosphorylated (D56) by incubation with acetylphosphate; higher level than the WT
Does B5 bind (SEC)?
Result: binds

B6: P1flhDC (dsDNA)
DNA 1: CGTCGAATTAGGAAAAATCTTAGGCA
DNA 2: TGCCTAAGATTTTTCCTAATTCGACG
Does B6 bind (RcsB A93D)?
Result: no binding

Does B6 bind (RcsB Q185A)?
Result: no binding

Does B6 bind (RcsB D56A)?
Result: no binding

Does B6 bind (RcsB L202D)?
Result: no binding

Does B6 bind (RcsB L202F)?
Result: binds

Does B6 bind (RcsB K180A)?
Result: no binding

Does B6 bind (RcsB H12A)?
Result: no binding

Does B6 bind (RcsB M88A)?
Result: binds

Does B6 bind (RcsB WT [3])?
Result: binds

B7: rcsA promoter (dsDNA)
DNA 1: CCTGTTTTACTAAGGTTTATCCGAAAATA
DNA 2: TATTTTCGGATAAACCTTAGTAAAACAGG
Which results are given for B7?
binding result (RcsB A93D): no binding; binding result (RcsB Q185A): no binding; binding result (RcsB K180A): no binding; binding result (RcsB WT [4]): binds
